Results: patent US20190381169A1, “PHARMACEUTICAL COMBINATIONS FOR IMMUNOTHERAPY” (Technische Universitat Dresden, priority 2014, published 2019)

Target: T1, p75^NTR (Homo sapiens, UniProt P08138)
T1 sequence (P08138 29-427): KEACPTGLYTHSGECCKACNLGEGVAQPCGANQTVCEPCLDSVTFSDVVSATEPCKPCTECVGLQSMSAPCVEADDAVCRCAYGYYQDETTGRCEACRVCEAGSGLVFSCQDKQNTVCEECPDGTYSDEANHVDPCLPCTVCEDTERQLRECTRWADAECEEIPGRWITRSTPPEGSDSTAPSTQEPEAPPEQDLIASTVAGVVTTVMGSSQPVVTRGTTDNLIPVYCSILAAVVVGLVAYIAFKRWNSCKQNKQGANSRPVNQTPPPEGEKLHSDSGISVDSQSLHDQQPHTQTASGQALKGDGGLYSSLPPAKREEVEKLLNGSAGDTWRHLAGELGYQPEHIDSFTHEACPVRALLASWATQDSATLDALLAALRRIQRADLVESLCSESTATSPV
Assay: IFNα secretion by ODN 2216 stimulated human PDC (ELISA)
Format: cell-based
Set-up: nerve growth factor receptor p75^NTR, which is expressed by human and murine plasmacytoid dendritic cells (PDC); endogenous in cells; host or cells: primary human plasmacytoid dendritic cells (BDCA-4+ selection) from buffy coats or from peripheral blood of allergic donors
Settings: ODN 2216 plus NGF 200 ng/ml vs ODN 2216 without NGF; 14 hours; p=0.0031
Procedure: Blood samples used for cell purification were obtained from two different sources: Fresh buffy coat samples, not older than 8 hours, served as the source of PDC used in oligodeoxynucleotides (ODN) and anti FcεRIα stimulation experiments. […]
Alike CD4^+ T helper cells isolation from peripheral blood mononuclear cells, total cell numbers were determined prior to purification of PDC. […] Magnetic cell separation procedure as described for first LS column was repeated for second MS column except that washing of the MS column was carried out with 500 μl PBS E/B. Purified PDC were counted and purity was assessed by flow cytometric analysis after staining the cells with monoclonal mouse anti human BDCA2-PE (Miltenyi Biotech) and monoclonal mouse anti human CD271-APC (Miltenyi Biotech). […]

“NGF: Nerve growth factor, best characterized neurotrophin; natural p75^NTR agonist (R&D Systems)” was tested, and the IFNα secretion was “significant reduction”.
